Patent US20060199195A1 (CEDARS SINAI MEDICAL CENTER, published 2006)

B4: glutathione-S-transferase fusion of the C-terminal domain of schwannomin isoform 1 (GSTNF2CL, schwannomin residues 469-595) (other)
chain: KQKLLEIATKPTYPPMNPIPAPLPPDIPSFNLIGDSLSFDFKDTDMKRLSMEIEKEKVEYMEKSKHLQEQLNELKTEIEALKLKERETALDILHNENSDRGGSSKHNTIKKLTLQSAKSRVAFFEEL
notes: Expressed in E. coli DH5α, purified on Sepharose 4B-glutathione; predicted 40.0 kDa; also called isoform 1 C-terminal domain GST fusion; not shown: Glutathione-S-transferase of pGEX-5X-1 and its linker

Experiments:
[1] = molecular target: B4; assay: pull-down on amylose resin, Western blot
Method: (§1) Purified MBP or MBP fusions were incubated with fresh amylose resin for 5 minutes at room temperature and 2.5 minutes at 4° C. in column buffer (20 mM Tris-HCl, pH 7.4, 200 mM NaCl, 1 mM EDTA, 2 μg/ml aprotinin, 0.5 mg/ml Perfabloc SC), and washed three times with binding buffer (160 mM NaCl, 2.5 mM MgCl₂, 1.5 mM CaCl₂, […], 50 mM hepes, pH 7.4, 1% Triton X-100, 2 μg/ml aprotinin, and 0.5 mg/ml Pefabloc SC). Saturated amylose resin was incubated with equivalent amounts of GSTNF2CL or GSTNF2I2CL for 20 min at 4° C. and washed three times with binding buffer. The quantities were normalized by conducting dot blots of serial dilutions detected with anti-GST antibody (Pharmacia). Western blot analysis was conducted as described using affinity purified rabbit anti-spectrin (Sigma S1515), and anti-schwannomin (Ab5990, recognizes C-terminal domain) polyclonal antibodies (Huynh and Pulst (1996)).
(§2) Glutathione-S-transferase (GST) fusions were purified with the C-terminal domain of schwannomin isoform 1 (GSTNF2CL, schwannomin residues 469-595) or isoform 2 (GSTNF2I2CI, schwannomin residues 469-590). When the MBPSp-amylose resin was incubated with schwannomin-GST fusion proteins, the proteins eluted from the washed resin were recognized by an anti-schwannomin antibody (Ab5990). […]

[2] = molecular target: T1, full-length schwannomin isoform 1 fused to the GAL4 binding domain (pGBT9NF2, residues 1-595) (Homo sapiens (Human), UniProt P35240 1-595); assay: yeast two-hybrid, β-galactosidase filter assay
T1 construct: Yeast two-hybrid bait; also called pGPT9NF2; GAL4-NF2
T1 sequence: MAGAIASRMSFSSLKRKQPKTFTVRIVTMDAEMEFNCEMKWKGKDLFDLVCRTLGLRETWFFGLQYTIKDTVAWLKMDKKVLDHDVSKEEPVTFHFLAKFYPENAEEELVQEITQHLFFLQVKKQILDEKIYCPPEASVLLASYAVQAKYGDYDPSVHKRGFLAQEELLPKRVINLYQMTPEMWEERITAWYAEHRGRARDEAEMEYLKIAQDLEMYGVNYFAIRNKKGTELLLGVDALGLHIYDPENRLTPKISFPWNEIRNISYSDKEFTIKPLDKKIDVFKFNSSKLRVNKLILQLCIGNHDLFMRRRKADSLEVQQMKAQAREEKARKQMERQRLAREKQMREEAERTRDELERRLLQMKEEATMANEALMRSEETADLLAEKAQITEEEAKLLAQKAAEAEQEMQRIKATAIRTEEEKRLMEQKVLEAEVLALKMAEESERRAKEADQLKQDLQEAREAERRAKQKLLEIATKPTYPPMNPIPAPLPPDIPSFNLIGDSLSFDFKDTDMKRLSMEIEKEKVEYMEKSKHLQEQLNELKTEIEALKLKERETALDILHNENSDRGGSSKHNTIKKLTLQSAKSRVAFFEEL
From the text: Double-transformant pGBT9NF2I2CL and pGAD10Sp is weakly positive for β-galactosidase in the filter assay; the trace blue color is not visible in the photo. Right: Histogram illustrating results of semiquantitative liquid assays for β-galactosidase activity (Poullet and Tamanio, Methods in Enzymol. 255:488-497 (1995)). Three controls are included: pGBT9NF1 and pGADGHRas, negative pGBT9NF2 and PGADGH, negative pGBT9 and pGAD105p. β-Galactosidase units=1000×[OD₄₂₀/(OD₆₀₀×times×culture volume)]. Bars show mean and standard deviation of three replicate clones from one transformation. Except for pGBT9NF2C and pGBT9NF2I2C, liquid assays for each construct were conducted at the same time, and for all constructs, the same clones were used in filter assays, and results were reproducible. FIG. 1(B) Control β-galactosidase filter assays of indicated double transformants showing high activity for a known positive interaction between NF1 and Ras (Poullet and Tamanio, (1995)), no detectable interaction between GAL4-NF2 and an unrelated protein, CD44 (conserved cytoplasmic domain, last 70 residues), and no detectable interaction between other negative controls. […]

[3] = molecular target: T1, full-length schwannomin isoform 1 fused …; assay: yeast two-hybrid, liquid β-galactosidase assay, control
[4] = molecular target: maltose binding protein (MBP) with no fusion protein (UniProt P0AEX9 27-392 = MBP); assay: pull-down on amylose resin, Western blot with Ab5990
Method: as §1, §2

B1: MBP fused with β-spectrin residues 1885-1992 (other, UniProt Q01082 1885-1992, looked up, not shown: large carriers)
chain: RENEVLEAWKSLLDACESRRVRLVDTGDKFRFFSMVRDLMLWMEDVIRQIEAQEKPRDVSSVELLMNNHQGIKAEIDARNDSFTTCIELGKSLLARKHYASEEIKEKL
binding result [1]: no binding

B2: CD44 (conserved cytoplasmic domain, last 70 residues) (other, UniProt P16070 673-742, looked up, not shown: large carriers)
chain: RRRCGQKKKLVINSGNGAVEDRKPSGLNGEASKSQEMVHLVNKESSETPDQFMTADETRNLQNVDMKIGV
notes: domain: conserved cytoplasmic domain, last 70 residues; Unrelated control protein in the two-hybrid filter assay
binding result [2]: no binding

B3: GAL4 activation domain alone (pGADGH, no insert) (other, UniProt P04386 768-881, looked up)
chain: ANFNQSGNIADSSLSFTFTNSSNGPNLITTQTNSQALSQPIASSNVHDNFMNNEITASKIDDGNNSKPLSPGWTDQTAYNAFGITTGMFNTTTMDDVYNYLFDDEDTPPNPKKE
notes: Negative control
binding result [3]: no binding

B4
binding result [4]: no binding

B5: MBP fused with β-spectrin residues 1885-1967 (other, UniProt Q01082 1885-1967, looked up, not shown: large carriers)
chain: RENEVLEAWKSLLDACESRRVRLVDTGDKFRFFSMVRDLMLWMEDVIRQIEAQEKPRDVSSVELLMNNHQGIKAEIDARNDSF
binding result [1]: no binding
